Test results taken from paper PMC3483176, “Structural Insight into the Clostridium difficile Ethanolamine Utilisation Microcompartment” (PLoS ONE, 2012).

Assays:
[1] = target: the molecule itself; experiment: crystal structure; CD1908-His at 10 mg/ml in Milli-Q H2O, sitting drop, 24% (w/v) PEG 1500, 20% (v/v) glycerol; space group H 3; two molecules in the asymmetric unit, hexamer by the crystallographic 3-fold axis; oligomerisation states calculated with PISA
[2] = target: the molecule itself; experiment: crystal structure; CD1918-His at 10 mg/ml in Milli-Q H2O, sitting drop, 200 mM Li2SO4, 100 mM phosphate/citrate buffer pH 4.2, 20% (w/v) PEG 1000; space group I 1 2 1; three chains in the asymmetric unit, hexamer by a crystallographic 2-fold axis; oligomerisation states calculated with PISA

B1: CD1908, C-terminal His6 tagged (CD1908-His) (natural protein, Clostridium difficile 630, UniProt Q187M0 1-116, looked up)
chain: MTEESKQRVIQEYVPGKQVTLAHIIANPNEDIYKKLGLVLDKKDAIGILTITPSEASIIAADVATKASNVSLGFIDRFSGSVVISGDVSSVESALNDVLEVLGNMLNFSSTKITRT
notes: CD1908, EutS homologue, BMC shell protein of the eut operon of Clostridium difficile 630; full length open reading frame amplified from genomic DNA (genome positions 2209853-2210203); Cloned between NcoI and XhoI of pET28b; also called EutS; C. difficile EutS homologue; source: E. coli B834 (DE3), purified (HisTrap, Superdex S200 size exclusion); not shown: His6, C-terminal, kept
[1]
  stoichiometry N: 6

B2: CD1918, C-terminal His6 tagged (CD1918-His) (natural protein)
chain: MASANALGMIETKGLVGAIEAADAMVKAANVQLVGKEQVGGGLVTVMVRGDVGAVKAATDAGAAAAERVGELISVHVIPRPHFEVDAILPKVSAE
notes: CD1918, EutM homologue, BMC shell protein of the eut operon of Clostridium difficile 630; full length open reading frame amplified from genomic DNA (genome positions 2219567-2219854); Cloned between NcoI and XhoI of pET28b; the XhoI site probably adds Leu-Glu before the His6 tag (surmised); also called EutM; C. difficile EutM homologue; source: E. coli B834 (DE3), purified (HisTrap, Superdex S200 …)
[2]
  stoichiometry N: 6
